In patent publication US20220177583A1:
Changes are numbered by the printed parent chain.

B1: AB1-Chim (antibody, V domains shown)
VH: QVQLQQSAAELARPGASVKMSCKASGYTFTTYTMHWVKQRPGQGLEWIGFINPSSGYTDYNQKFKDRTTLTADKSSSTVYMQLSSLTSEDSAVYYCANGDYYVAYWGQGTLVTVSA
VL: QIVLTQSPAIMSASLGERVTMTCTASSSVSSTYFHWYQQKPGSSPKLWIYSTSNLASGVPRRFSGSASGTSYSLTISSMEAEDAATYYCHQYHRSPLTFGAGTKLELK
B2: AB1-3 (antibody, V domains shown)
VH: QVQLVQSGAEVKKPGASVKVSCKASGYTFTTYTMHWVRQAPGQGLEWMGFINPSSGYTDYAQKFQGRVTMTADTSTSTVYMELSSLRSEDTAVYYCANGDYYVAYWGQGTLVTVSS
VL: DIQMTQSPSSLSASVGDRVTITCTASSSVSSTYFHWYQQKPGKAPKLLIYSTSNLASGVPSRFSGSGSGTDYTLTISSLQPEDFATYYCHQYHRSPLTFGQGTKLEIK
B3: AB1-4 (antibody, V domains shown)
VH: B2 VH
VL: B2 VL with M4L, I21M, L79M, F84A
B4: AB1-5 (antibody, V domains shown)
VH: B2 VH
VL: B2 VL with M4L, I21M, L48W, L79M, F84A
B5: AB1-6 (antibody, V domains shown)
VH: B2 VH with V20M, M48I, M70L
VL: B2 VL
B6: AB1-7 (antibody, V domains shown)
VH: B2 VH with V20M, M48I, M70L
VL: B2 VL with M4L, I21M, L79M, F84A
B7: AB1-8 (antibody, V domains shown)
VH: B2 VH with V20M, M48I, M70L
VL: B2 VL with M4L, I21M, L48W, L79M, F84A
B8: AB1-11 (antibody, V domains shown)
VH: B2 VH with V20M, M48I, M70L, T74K
VL: B2 VL with M4L, I21M, L48W, L79M, F84A
B9: AB3-chim (antibody, V domains shown)
VH: EVKLEESGGGLVQPGGSMKLSCVASGFTFSNYWMNWVRQSPEKGLEWVAQIRLKSDNYATHYAESVKGRFTISRDDSKRSVYLQMNNLRAEDTGTYYCNDGPPSGCWGQGTTLIVSS
VL: DIQMTQSPASLSASVGETVTITCRISENIYSYLAWYQQKQGKSPQLLVYNAKILVEGVPSRFSGSGSGTQFSLKINSLQPEDFGNYYCQHHYTVPWTFGGGTKLEIK
B10: AB3-2 (antibody, V domains shown)
VH: EVQLLESGGGLVQPGGSMRLSCAASGFTFSNYWMNWVRQAPGKGLEWVAQIRLKSDNYATHYADSVKGRFTISRDDSKNTVYLQMNSLRAEDTGVYYCNDGPPSGCWGQGTLLTVSS
VL: DIQMTQSPSSLSASVGDRVTITCRISENIYSYLAWYQQKPGKAPKLLIYNAKILVEGVPSRFSGSGSGTDFTLTISSLQPEDFATYYCQHHYTVPWTFGQGTKLEIK
B11: AB3-3 (antibody, V domains shown)
VH: B10 VH
VL: B10 VL with I48V, A84G
B12: AB3-4 (antibody, V domains shown)
VH: B10 VH with C106Y
VL: B10 VL
B13: AB3-5 (antibody, V domains shown)
VH: B10 VH with C106Y
VL: B10 VL with I48V, A84G
B14: AB4-3 (antibody, V domains shown)
VH: QVQLVQSGAEVKKPGASVKVSCKASGYTFTSYTMHWVRQAPGQGLEWMGYINPSSTYTHYAQKFQGRVTMTADTSTSTVYMELSSLRSEDTAVYYCSRGELGGFAYWGQGTLVTVSS
VL: DVVMTQSPLSLPVTLGQPASISCRSSQSLVHSDGNTYLNWYQQRPGQSPRLLIYKVSNRFSGVPDRFSGSGSGTDFTLKISRVEAEDVGVYYCSQSTHVPYTFGQGTKLEIK
B15: AB4-4 (antibody, V domains shown)
VH: B14 VH with V20M, V37I, M48I, V68A, M70L, V79A
VL: B14 VL
B16: AB4-5 (antibody, V domains shown)
VH: B14 VH with V20M, V37I, L45Q, M48I, V68A, M70L, V79A
VL: B14 VL
B17: AB4-6 (antibody, V domains shown)
VH: B14 VH with V20M, V37I, M48I, V68A, M70L, T74K, V79A
VL: B14 VL
B18: AB4-7 (antibody, V domains shown)
VH: B14 VH with V20M, V37I, L45Q, M48I, V68A, M70L, T74K, V79A
VL: B14 VL
B19: AB4-8 (antibody, V domains shown)
VH: B14 VH with A61I, Q62K, Q65K, G66D
VL: B14 VL
B20: AB4-9 (antibody, V domains shown)
VH: B14 VH with V20M, V37I, M48I, A61I, Q62K, Q65K, G66D, V68A, M70L, V79A
VL: B14 VL
B21: AB4-10 (antibody, V domains shown)
VH: QVQLVQSGAEVKKPGASVKMSCKASGYTFTSYTMHWIRQAPGQGQEWIGYINPSSTYTHYIKKFKDRATLTADTSTSTAYMELSSLRSEDTAVYYCSRGELGGFAYWGQGTLVTVSS
VL: B14 VL
B22: AB4-11 (antibody, V domains shown)
VH: B21 VH with Q45L, T74K
VL: B14 VL
B23: AB4-12 (antibody, V domains shown)
VH: B21 VH with T74K
VL: B14 VL
B24: AB18-chim (antibody, V domains shown)
VH: QVQLKQSGPELEKPGASVKISCKASGYSFTGYNMNWVKQSNGKSLEWIGNIDPYYGGSTYNQKFTGKATLTVDKSSSTAYMQLKSLTSEDSAVYYCARERSGYVFSAMDYWGQGTSVTVSS
VL: NIMMTQSPSSLAVSAGEKVTMSCKSSQSVLFSSNQKNYLAWYQQKPGQSPRLLIYWASTRESGVPDRFTGSGSGTDFTLTISNVQAEDLAVYYCHQYLSSRTFGAGTKLELK
B25: AB18-4 (antibody, V domains shown)
VH: QVQLVQSGAEVKKPGASVKVSCKASGYSFTGYNMNWVRQAPGQGLEWMGNIDPYYGGSTYAQKFQGRVTMTVDTSTSTVYMELSSLRSEDTAVYYCARERSGYVFSAMDYWGQGTLVTVSS
VL: DIVMTQSPDSLAVSLGERVTMNCKSSQSVLFSSNQKNYLAWYQQKPGQPPKLLIYWASTRESGVPDRFSGSGSGTDFTLTISSVQAEDVAVYYCHQYLSSRTFGQGTKLEIK
B26: AB18-6 (antibody, V domains shown)
VH: B25 VH with V20I, M48I, V68A, M70L, V79A
VL: B25 VL
B27: AB9-chim (antibody, V domains shown)
VH: EVQLQQSGPELVKPGASVKMSCKASGYRFTDYNMHWVKQSHGKSLEWIGYINPNNGGTNYNQNFKGKATLTVNKSSSTAYMELRSLTSEDSAAYYCARDYLYFFDCWGQGTTLTVSS
VL: DIQMTQSPASQSASLGESVTITCLASQTIGTWLAWYQQKPGKSPQLLIYAAASLADGVPSRFSGSGSGTRFSFKISSLQAEDFVSYYCQQLYSIPRTFGGGTKLEIK
B28: AB9-3 (antibody, V domains shown)
VH: QVQLVQSGAEVKKPGASVKMSCKASGYRFTDYNMHWVRQAPGQGLEWIGYINPNNGGTNYAQKFQGRATLTVDTSTSTAYMELSSLRSEDTAVYYCARDYLYFFDCWGQGTLLTVSS
VL: DIQMTQSPSSLSASVGDRVTITCLASQTIGTWLAWYQQKPGKAPKLLIYAAASLADGVPSRFSGSGSGTDFTFTISSLQPEDFVTYYCQQLYSIPRTFGQGTKLEIK
B29: AB9-4 (antibody, V domains shown)
VH: B28 VH
VL: B28 VL with L24R
B30: AB11-chim (antibody, V domains shown)
VH: DVQLVESGGGLVQPRGSRKLSCAASGFTFSSFGMHWVRQAPEKGLEWVAYISSDSRTIYYADTVKGRFTISRDNPTNTLFLQMTSLRSEDTAMYYCARDYGRTYEAYWGQGTLVTVSA
VL: DIVLTQSPASLAVSLGQRATISCRASKSVSTSGYSYIHWYQQKPGQPPKLLIYLASNLESGVPARFSGSGSGTDFTLNIHPVEEEDAATYYCQHSRELPLTFGAGTKLELK

biological target: human CLDN6 fused to GFP, expressed on engineered HEK293T cells (human) (UniProt P56747); experiment: FACS, 293T clone with human CLDN6, 0.3 ug Ab

First: B1
Second: B2
The FACS signal of the first is higher: 312000 for the first, 142000 for the second.

Compared with B3, B4 is higher in FACS signal: 102000 for the first, 138000 for the second.

First: B5
Second: B6
The FACS signal of the first is higher: 120000 for the first, 79200 for the second.

Compared with B7, B8 is lower in FACS signal: 98800 for the first, 64900 for the second.

Compared with B9, B10 is higher in FACS signal: 267000 for the first, 309000 for the second.

Compared with B11, B12 is lower in FACS signal: 251000 for the first, 11600 for the second.

Compared with B13, B14 is higher in FACS signal: 13300 for the first, 14300 for the second.

Going from B15 to B16, the FACS signal rises from 14100 to 16800.

Compared with B17, B18 is higher in FACS signal: 10800 for the first, 19200 for the second.

Going from B19 to B20, the FACS signal falls from 49300 to 37200.

Going from B21 to B22, the FACS signal falls from 50800 to 37800.

Compared with B23, B24 is higher in FACS signal: 71100 for the first, 73800 for the second.

Compared with B25, B26 is lower in FACS signal: 32400 for the first, 26900 for the second.

Going from B27 to B28, the FACS signal falls from 46700 to 9500.

Compared with B29, B30 is lower in FACS signal: 15300 for the first, 1670 for the second.

biological target: human CLDN6 fused to GFP, expressed on engineered HEK293T cells (human) (UniProt P56747); experiment: FACS, 293T clone with human CLDN6, 1.5 ug Ab

Going from B1 to B2, the FACS signal falls from 364000 to 142000.

First: B3
Second: B4
The FACS signal of the first is lower: 197000 for the first, 213000 for the second.

Going from B5 to B6, the FACS signal falls from 227000 to 207000.

Going from B7 to B8, the FACS signal falls from 210000 to 113000.

First: B9
Second: B10
The FACS signal of the first is higher: 459000 for the first, 396000 for the second.

Going from B11 to B12, the FACS signal falls from 340000 to 55800.

Compared with B13, B14 is lower in FACS signal: 48600 for the first, 47800 for the second.

Going from B15 to B16, the FACS signal falls from 49000 to 43400.

Compared with B17, B18 is higher in FACS signal: 29200 for the first, 33300 for the second.

Going from B19 to B20, the FACS signal falls from 77600 to 56900.

First: B21
Second: B22
The FACS signal of the first is higher: 77200 for the first, 61200 for the second.

Compared with B23, B24 is higher in FACS signal: 86200 for the first, 135000 for the second.

Compared with B25, B26 is higher in FACS signal: 54400 for the first, 58500 for the second.

Compared with B27, B28 is lower in FACS signal: 72000 for the first, 24600 for the second.

Going from B29 to B30, the FACS signal falls from 34300 to 3490.
